From paper PMC3182822
pKi: −log10 of the molar value.

Target: trypsin from bovine pancreas (bovine)
Experiment: enzyme inhibition kinetics

Sequence of trypsin from bovine pancreas (bovine) (P00760 24-246): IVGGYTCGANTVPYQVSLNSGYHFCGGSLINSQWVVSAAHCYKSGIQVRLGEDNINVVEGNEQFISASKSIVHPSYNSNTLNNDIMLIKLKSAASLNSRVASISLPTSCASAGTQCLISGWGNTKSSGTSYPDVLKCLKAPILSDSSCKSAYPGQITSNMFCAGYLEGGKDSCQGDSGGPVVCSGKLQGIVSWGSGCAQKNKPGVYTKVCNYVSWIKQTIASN

- pKi: 4.24
Substance: ovomucoid trypsin inhibitor (from UniProt P01005 25-210) (natural protein)
